US20020156112A1, “Endostatin-like angiogenesis inhibition” (priority 2000, published 2002)

T1: irrelevant FLR-peptide (Homo sapiens, UniProt P15941, R1131P)
T1 construct: ID No. 2: FLR peptide
T1 sequence (P15941 with tags, fused parts or gaps R1131P): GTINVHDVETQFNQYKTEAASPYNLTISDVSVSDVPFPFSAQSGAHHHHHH


What was measured:
[1] = test system: GRGDS peptide; assay: Gold colloid colour-change binding assay, RGD peptide colloids (Example 6); conditions: endostatin 0.1 mg/mL; wells A1, A2
Protocol: (§1) 40 μM NTA gold colloids were prepared which presented the His-tagged RGD peptide (Sequence ID No.1, see Table 1). These colloids were mixed with endostatin (0.1 mg /mL) and turned blue, indicating binding of endostatin to the GRGDS peptide (A1, A2, FIG. 6). Control colloids presenting an irrelevant FLR-peptide (Sequence ID #2, see table 1) remained pink (wells A3, A4). At the highest concentration of vitronectin (0.1 mg /ml), the endostatin—GRGDS interaction is disrupted, and the well remains pink (B1). At lower concentrations of vitronectin, the endostatin—GRDS interaction is not affected and the wells turn blue (B2-B5).

[2] = test system: resin-immobilized RGD peptide; assay: NTA-Ni agarose resin binding verified by SDS-PAGE (Example 7); conditions: imidazole elution
Protocol: (§2) 400 ul phosphate buffer (pH 7.4), 200 ul either RGD-bound colloids or GST-bound colloids, and either 100 ul endostatin or angiostatin, 50 ul endostatin or angiostatin/50 ul phosphate buffer, or 100 ul phosphate buffer (as a negative control) were added to each well of a crystallization dish. Color change was monitored over time at room temperature. […] The color change was more pronounced in the well that contained 100 ul endostatin than in the well that contained 50 ul endostatin/50 ul phosphate buffer. […] The results were verified by gel electrophoresis. The RGD peptide and histidine-tagged GST were bound to a small amount of NTA-Ni agarose resin at saturating concentration. Endostatin was incubated with the resin and allowed to bind to the protein on the resin. The histidine-tagged proteins were then eluted using imidazole, and the samples were analyzed by SDS-PAGE.

[3] = test system: His-tagged GRGDS motif peptide; assay: NTA-Ni agarose pull-down with SDS PAGE of eluate and flow through (Example 2); assay type: binding; conditions: 0.1 mg/mL protein; imidazole (250 mM) elution
Protocol: 200 μL NTA-Ni agarose (Qiagen) were washed 2× with 100 μL ddH20, then with wash buffer A, containing 50 mM NaH2PO4, 300 mM NaCl, and 10 mM imidazole at pH 8.0.
A synthetic peptide, was dissolved in DMSO then diluted in phosphate buffer to a final concentration of 1 mM. 100 μL of this peptide solution was incubated with the NTA-Ni resin for 20 minutes at room temperature to allow binding of the histidine-tagged peptide to the NTA-Ni resin. The resin was then pelleted and the supernatant was removed. The resin was washed in buffer A. The peptide bound resin was then divided into two aliquots. A first aliquot was mixed with 100 μL human recombinant endostatin (0.1 mg/mL in 10 mM sodium phosphate buffer, 100 mM sodium chloride, pH 7.4, diluted from stock endostatin, Calbiochem 324746). A second aliquot was mixed with 100 μL human angiostatin, Calbiochem 176700(0.1 mg/mL in 10 mM sodium phosphate buffer, 100 mM sodium chloride, pH 7.4. The beads and angiogenesis inhibitors were incubated on ice 15-20 minutes to allow binding to the bead-immobilized peptide. The resin was then pelleted. The supernatants were removed and reserved for analysis by SDS PAGE (flow through). The beads were then washed 2× with 10 mM sodium phosphate buffer. The histidine-tagged peptides and any immobilized drug were eluted by the addition of 4 aliquots of an imidazole (250 mM) wash.

[4] = molecular target: T1, irrelevant FLR-peptide; assay: Gold colloid colour-change binding assay, control colloids (Example 6); conditions: endostatin 0.1 mg/mL; wells A3, A4
Protocol: as §1

[5] = test system: RGD-peptide-bound colloids; assay: Colloid/colloid linkage colour-change assay on NTA colloids (Example 7); assay type: binding; conditions: 100 ul or 50 ul protein; room temperature, after approximately 15 minutes
Protocol: (§3) 600 microliters colloids, derivatized with a self-assembled monolayer that presents nitrilo tri-acetic acid, NTA (for the capture of histidine-tagged proteins), was mixed with 60 microliters of 500 micromolar histidine-tagged RGD-motif-containing peptide. 600 microliters of a second set of NTA-Ni presenting colloids was mixed with 60 ul of a 500 uM solution of histidine-tagged GST, an irrelevant protein, as a negative control. Colloids were spun down and resuspended in phosphate buffer to remove residual unbound protein or peptide. Endostatin and Angiostatin, two proteins implicated in angiogenesis and suspected of binding to regions of vitronectin, such as the RGD peptide, were prepared by dialysis into phosphate-buffered saline solution and then 1:10 dilution into PBS from a stock concentration of 1 mg/mL.
(§4) 400 ul phosphate buffer (pH 7.4), 200 ul either RGD-bound colloids or GST-bound colloids, and either 100 ul endostatin or angiostatin, 50 ul endostatin or angiostatin/50 ul phosphate buffer, or 100 ul phosphate buffer (as a negative control) were added to each well of a crystallization dish. Color change was monitored over time at room temperature. […] The histidine-tagged proteins were then eluted using imidazole, and the samples were analyzed by SDS-PAGE.

[6] = test system: resin-immobilized GST; assay: NTA-Ni agarose resin binding verified by SDS-PAGE, control (Example 7); conditions: imidazole elution
Protocol: as §2

[7] = test system: GST-bound colloids; assay: Colloid/colloid linkage colour-change assay on NTA colloids, negative control protein (Example 7); assay type: binding; conditions: 100 ul or 50 ul protein; room temperature
Protocol: as §3, §4

Chain of His-tagged GRGDS motif peptide (as listed by the source): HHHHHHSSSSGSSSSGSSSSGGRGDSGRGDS
Chain of resin-immobilized RGD peptide (as listed by the source): as above
Chain of GRGDS peptide (as listed by the source): as above

| Molecule | colloid colour (binding to GRGDS peptide) [1] | binding to resin-immobilized RGD peptide (SDS-PAGE) [2] | co-elution with GRGDS motif peptide (SDS PAGE) [3] | colloid colour (binding to FLR peptide) [4] | colour change of RGD-peptide-bound colloids [5] | binding to resin-immobilized GST (SDS-PAGE) [6] | colour change of GST-bound colloids [7] |
| --- | --- | --- | --- | --- | --- | --- | --- |
| endostatin: human recombinant endostatin (Calbiochem 324746), known angiogenesis inhibitor protein, a dimer in its functional form (protein, UniProt P39060 1572-1754, looked up, Endostatin) Endostatin: HSHRDFQPVLHLVALNSPLSGGMRGIRGADFQCFQQARAVGLAGTFRAFLSSRLQDLYSIVRRADRAAVPIVNLKDELLFPSWEALFSGSEGPLKPGARIFSFDGKDVLRHPTWPQKSVWHGSDPNGRRLTESYCETWRTEAPSATGQASSLLGGRLLGQSAASCHHAYIVLCIENSFMTASK | turned blue | bound | co-eluted | remained pink | color change from red to blue | did not bind | No color change |
| angiostatin: human angiostatin, Calbiochem 176700, angiogenesis inhibitor protein (protein) YLSECKTGNGKNYRGTMSKTKNGITCQKWSSTSPHRPRFSPATHPSEGLEENYCRNPDNDPQGPWCYTTDPEKRYDYCDILECEEECMHCSGENYDGKISKTMSGLECQAWDSQSPHAHGYIPSKFPNKNLKKNYCRNPDRELRPWCFTTDPNKRWELCDIPRCTTPPPSSGPTYQCLKGTGENYRGNVAVTVSGHTCQHWSAQTPHTHNRTPENFPCKNLDENYCRNPDGKRAPWCHTTNSQVRWEYCKIPSCDSSPVSTEQLAPTAPPELTPVVQDCYHGDGQSYRGTSSTTTTGKKCQSWSSMTPHRHQKTPENYPNAGLTMNYCRNPDADKGPWCFTTDPSVRWEYCNLKKCSGTEA | – | – | did not | – | No color change | – | No color change |
